Target: T7 RNA polymerase, P00573
Sequence (P00573 whole entry): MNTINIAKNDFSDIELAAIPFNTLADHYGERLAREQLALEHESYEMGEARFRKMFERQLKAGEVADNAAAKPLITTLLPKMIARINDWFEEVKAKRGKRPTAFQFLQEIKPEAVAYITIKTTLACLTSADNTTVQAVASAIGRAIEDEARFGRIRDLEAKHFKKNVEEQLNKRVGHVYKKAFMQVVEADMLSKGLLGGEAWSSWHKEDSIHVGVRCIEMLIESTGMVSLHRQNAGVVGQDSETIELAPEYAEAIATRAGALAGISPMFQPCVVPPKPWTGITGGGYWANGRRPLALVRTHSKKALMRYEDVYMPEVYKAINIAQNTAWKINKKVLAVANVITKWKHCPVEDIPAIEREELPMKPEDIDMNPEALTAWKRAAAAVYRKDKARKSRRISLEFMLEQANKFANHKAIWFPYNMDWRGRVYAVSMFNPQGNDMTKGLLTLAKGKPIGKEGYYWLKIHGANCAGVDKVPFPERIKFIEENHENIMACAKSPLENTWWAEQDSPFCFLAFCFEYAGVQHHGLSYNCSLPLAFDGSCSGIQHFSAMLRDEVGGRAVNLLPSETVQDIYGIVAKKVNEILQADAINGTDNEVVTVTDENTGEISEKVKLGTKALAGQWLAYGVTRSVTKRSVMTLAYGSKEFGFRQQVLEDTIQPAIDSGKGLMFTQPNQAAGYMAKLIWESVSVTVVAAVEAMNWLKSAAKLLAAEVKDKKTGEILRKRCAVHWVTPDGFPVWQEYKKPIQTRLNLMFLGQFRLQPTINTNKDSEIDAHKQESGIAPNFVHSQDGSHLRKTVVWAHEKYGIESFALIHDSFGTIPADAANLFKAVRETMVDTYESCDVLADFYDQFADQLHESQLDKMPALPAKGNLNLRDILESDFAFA

B1: T7 lysozyme (protein)
chain: MARVQFKQRESTDAIFVHCSATKPSQNVGVREIRQWHKEQGWLDVGYHFIIKRDGTVEAGRDEMAVGSHAKGYNHNSIGVCLVGGIDDKGKFDANFTPAQMQSLRSLLVTLLAKYEGAVLRAHHEVAPKACPSFDLKRWWEKNELVTSDRG
reduction of msfGFP output upon lysozyme induction (P. putida, 4 mM Rha): T7 (-79%)

Source: US20260085338
